Results from patent US7135457 (CYTOGEN, dated 2006).
Read-outs that look alike come from different tables or passages of the source.

Legend:
[1] = molecular target: T1, human sucrase-isomaltase complex (hSI) receptor domain, amino acid residues 272-667, His-tag fusion protein (human, UniProt P14410 272-667); experiment: phage ELISA, OD on hSI over OD on BSA
T1 construct: Expressed as His-tag fusion, purified under denaturing conditions (urea or guanidine HCl), coated on plates; also called hS1 receptor domain; not shown: poly-histidine tag (pET His-tag) at the NH2-terminal end

[2] = molecular target: T1, human sucrase-isomaltase complex (hSI) …; experiment: phage ELISA, coated hSI domain
[3] = molecular target: T2, human PEPT1 (hPEPT1) receptor domain, amino acid residues 391-571, His-tag fusion protein (human, UniProt P46059 391-571); experiment: phage ELISA, coated hPEPT1 domain
T2 construct: Expressed as His-tag fusion, purified under denaturing conditions, coated on plates; not shown: poly-histidine tag (pET His-tag) at the NH2-terminal end
T2 sequence: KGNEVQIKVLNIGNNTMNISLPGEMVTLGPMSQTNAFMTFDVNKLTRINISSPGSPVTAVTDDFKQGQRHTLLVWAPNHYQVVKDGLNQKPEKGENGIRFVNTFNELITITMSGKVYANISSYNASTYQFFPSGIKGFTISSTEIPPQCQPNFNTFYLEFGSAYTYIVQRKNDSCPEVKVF
Method: (§1) 6.6. Receptor ELISA Procedure 96 well plates were coated overnight with GIT receptor, BSA and, optionally, IDE (insulin degrading enzyme, an irrelevant His-fusion protein) or hTF. The plates were blocked for one hour with 0.5% BSA-PBS. After clarification, the amplified phage were diluted 1:100 in 1% BSA plus 0.05% Tween 20 in PBS and added to the plates. Following incubation of the plates on a rotator for 1 to 2 hours, the plates were washed 5 times with 1% BSA plus 0.05% Tween 20 in PBS. […] After the plates were washed 5 times, as described above, TMB substrate was added to the wells. The plates were read at 650 nm absorbance.

[4] = molecular target: T2, human PEPT1 (hPEPT1) receptor domain, …; experiment: phage ELISA, OD on hPEPT1 over OD on BSA
Method: as §1

[5] = molecular target: T3, human D2H transporter receptor domain, amino acid residues 387-685, His-tag fusion protein (human, UniProt Q07837 387-685); experiment: phage ELISA, OD on D2H over OD on BSA
T3 construct: Expressed as His-tag fusion, purified under denaturing conditions, coated on plates; not shown: poly-histidine tag (pET His-tag) at the NH2-terminal end
T3 sequence: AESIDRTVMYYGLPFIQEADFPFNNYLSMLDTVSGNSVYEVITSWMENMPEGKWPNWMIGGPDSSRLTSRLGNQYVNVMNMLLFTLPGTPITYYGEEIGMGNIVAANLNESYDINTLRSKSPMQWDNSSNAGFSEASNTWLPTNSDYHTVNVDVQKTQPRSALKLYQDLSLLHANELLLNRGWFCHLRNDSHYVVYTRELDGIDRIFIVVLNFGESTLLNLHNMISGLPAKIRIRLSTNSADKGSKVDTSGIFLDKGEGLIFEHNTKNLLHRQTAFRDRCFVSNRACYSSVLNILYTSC
Method: as §1

[6] = molecular target: T3, human D2H transporter receptor domain, …; experiment: phage ELISA, coated D2H domain
Method: as §1

[7] = molecular target: T3, human D2H transporter receptor domain, …; experiment: phage ELISA, coated D2H domain; remark: listed apart in the source
Method: as §1
(§2) Binding to fixed Caco-2 cells, D2H and BSA was examined.

[8] = molecular target: T3, human D2H transporter receptor domain, …; experiment: phage ELISA, OD on D2H over OD on BSA; remark: listed apart in the source
Method: as §1, §2

T1 sequence (P14410 272-667, one chain of several): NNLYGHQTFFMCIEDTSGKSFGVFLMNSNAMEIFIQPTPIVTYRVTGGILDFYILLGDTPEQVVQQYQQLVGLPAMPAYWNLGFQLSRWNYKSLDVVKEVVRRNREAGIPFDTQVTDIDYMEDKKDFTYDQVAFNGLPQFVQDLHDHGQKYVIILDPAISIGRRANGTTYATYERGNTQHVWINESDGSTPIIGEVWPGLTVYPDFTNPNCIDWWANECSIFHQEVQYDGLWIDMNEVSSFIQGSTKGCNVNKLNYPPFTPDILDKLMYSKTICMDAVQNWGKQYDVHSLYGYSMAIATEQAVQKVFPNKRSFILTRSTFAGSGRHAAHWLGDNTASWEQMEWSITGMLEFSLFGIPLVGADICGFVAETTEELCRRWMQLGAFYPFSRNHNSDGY

B1: phage S15 (peptide)
peptide: RSGAYESPDGRGGRSYVGGGGGCGNIGRKHNLWGLRTASPACWD
notes: pIII and flanks not included
- hSI/BSA [1]: 9 ratio
- OD [2]: 0.478 OD 650 nm

B2: phage SNi10 (peptide)
peptide: RVGQCTDSDVRRPWARSCAHQGCGAGTRNSHGCITRPLRQASAH
notes: pIII and flanks not included
- hSI/BSA [1]: 11 ratio
- OD [2]: 0.57 OD 650 nm

B3: phage PAX17 (peptide)
peptide: SQVDSFRNSFRWYEPSRALCHGCGKRDTSTTRIHNSPSDSYPTR
notes: pIII and flanks not included
- OD [3]: 0.514 OD 650 nm
- PEPT1/BSA [4]: 5 ratio

B4: phage PAX18 (peptide)
peptide: SFLRFQSPRFEDYSRTISRLRNATNPSNVSDAHNNRALA
notes: pIII and flanks not included
- OD [3]: 0.416 OD 650 nm
- PEPT1/BSA [4]: 5 ratio

B5: phage PAX35 (peptide)
peptide: RSITDGGINEVDLSSVSNVLENANSHRAYRKHRPTLKRP
notes: pIII and flanks not included
- OD [3]: 0.474 OD 650 nm
- PEPT1/BSA [4]: 7 ratio

B6: phage PAX38 (peptide)
peptide: SSKVSSPRDPTVPRKGGNVDYGCGHRSSARMPTSALSSITKCYT
notes: pIII and flanks not included
- OD [3]: 0.292 OD 650 nm
- PEPT1/BSA [4]: 5 ratio

B7: phage PAX40 (peptide)
peptide: RASTQGGRGVAPEFGASVLGRGCGSATYYTNSTSCKDAMGHNYS
notes: pIII and flanks not included
- OD [3]: 0.461 OD 650 nm
- PEPT1/BSA [4]: 6 ratio

B8: phage PAX43 (peptide)
peptide: RWCEKHKFTAARCSAGAGFERDASRPPQPAHRDNTNRNA
notes: pIII and flanks not included
- OD [3]: 0.345 OD 650 nm
- PEPT1/BSA [4]: 5 ratio

B9: phage PAX45 (peptide)
peptide: SFQVYPDHGLERHALDGTGPLYAMPGRWIRARPQNRDRQ
notes: pIII and flanks not included
- OD [3]: 0.419 OD 650 nm
- PEPT1/BSA [4]: 5 ratio

B10: phage PAX46 (peptide)
peptide: SRCTDNEQCPDTGTRSRSVSNARYFSSRLLKTHAPHRP
notes: pIII and flanks not included
- OD [3]: 0.429 OD 650 nm
- PEPT1/BSA [4]: 6 ratio

B11: phage P31 (peptide)
peptide: SARDSGPAEDGSRAVRLNGVENANTRKSSRSNPRGRRHP
notes: pIII and flanks not included
- OD [3]: 0.807 OD 650 nm
- PEPT1/BSA [4]: 11 ratio

B12: phage P90 (peptide)
peptide: SSADAEKCAGSLLWWGRQNNSGCGSPTKKHLKHRNRSQTSSSSH
notes: pIII and flanks not included
- OD [3]: 1.12 OD 650 nm
- PEPT1/BSA [4]: 9 ratio

B13: phage SNi28 (peptide)
peptide: SHSGGMNRAYGDVFRELRDRWNATSHHTRPTPQLPRGPN
notes: pIII and flanks not included
- hSI/BSA [1]: 8 ratio
- OD [2]: 0.942 OD 650 nm

B14: phage 5PAX12 (peptide)
peptide: RGWKCEGSQAAYGDKDIGRSRGCGSITKNNTNHAHPSHGAVAKI
notes: pIII and flanks not included
- OD [3]: 0.227 OD 650 nm
- PEPT1/BSA [4]: 6 ratio

B15: phage SNi34 (peptide)
peptide: SPCGGSWGRFMQGGLFGGRTDGCGAHRNRTSASLEPPSSDY
notes: pIII and flanks not included
- hSI/BSA [1]: 7 ratio
- OD [2]: 0.761 OD 650 nm

B16: phage SNi38 (peptide)
peptide: RGAADQRRGWSENLGLPRVGWDAIAHNSYTFTSRRPRPP
notes: pIII and flanks not included
- hSI/BSA [1]: 6 ratio
- OD [2]: 0.466 OD 650 nm

B17: phage SNi45 (peptide)
peptide: SGGEVSSWGRVNDLCARVSWTGCGTARSARTDNKGFLPKHSSLR
notes: pIII and flanks not included
- hSI/BSA [1]: 9 ratio
- OD [2]: 0.518 OD 650 nm

B18: phage SNiAX2 (peptide)
peptide: SDSDGDHYGLRGGVRCSLRDRGCGLALSTVHAGPPSFYPKLSSP
notes: pIII and flanks not included
- hSI/BSA [1]: 6 ratio
- OD [2]: 0.383 OD 650 nm

B19: phage SNiAX6 (peptide)
peptide: RTTTAKGCLLGSFGVLSGCSFTPTSPPPHLGYPPHSVN
notes: pIII and flanks not included
- hSI/BSA [1]: 7 ratio
- OD [2]: 0.369 OD 650 nm

B20: phage SNiAX8 (peptide)
peptide: SPKLSSVGVMTKVTELPTEGPNAISIPISATLGPRNPLR
notes: pIII and flanks not included
- hSI/BSA [1]: 5 ratio
- OD [2]: 0.342 OD 650 nm

B21: phage DAB3 (peptide)
peptide: RWCGAELCNSVTKKFRPGWRDHANPSTHHRTPPPSQSSP
notes: pIII and flanks not included
- D2H/BSA [5]: 6 ratio
- OD [6]: 0.406 OD 650 nm

B22: phage DAB7 (peptide)
peptide: RWCGADDPCGASRWRGGNSLFGCGLRCSAAQSTPSGRIHSTSTS
notes: pIII and flanks not included
- D2H/BSA [5]: 8 ratio
- OD [6]: 0.702 OD 650 nm

B23: phage DAB10 (peptide)
peptide: SKSGEGGDSSRGETGWARVRSHAMTAGRFRWYNQLPSDR
notes: pIII and flanks not included
- D2H/BSA [5]: 4 ratio
- OD [6]: 0.644 OD 650 nm

B24: phage DAB18 (peptide)
peptide: RSSANNCEWKSDWMRRACIARYANSSGPARAVDTKAAP
notes: pIII and flanks not included
- D2H/BSA [5]: 5 ratio
- OD [6]: 0.467 OD 650 nm

B25: phage DAB24 (peptide)
peptide: SKWSWSSRWGSPQDKVEKTRAGCGGSPSSTNCHPYTFAPPPQAG
notes: pIII and flanks not included
- D2H/BSA [5]: 4 ratio
- OD [6]: 1.8 OD 650 nm

B26: phage DAB30 (peptide)
peptide: SGFWEFSRGLWDGENRKSVRSGCGFRGSSAQGPCPVTPATIDKH
notes: pIII and flanks not included
- D2H/BSA [5]: 6 ratio
- OD [6]: 0.704 OD 650 nm

B27: phage DAX15 (peptide)
peptide: SESGRCRSVSRWMTTWQTQKGGCGSNVSRGSPLDPSHQTGHATT
notes: pIII and flanks not included
- D2H/BSA [5]: 4 ratio
- OD [6]: 0.391 OD 650 nm

B28: phage DAX23 (peptide)
peptide: REWRFAGPPLDLWAGPSLPSFNASSHPRALRTYWSQRPR
notes: pIII and flanks not included
- D2H/BSA [5]: 5 ratio
- OD [6]: 0.698 OD 650 nm

B29: phage DAX24 (peptide)
peptide: RMEDIKNSGWRDSCRWGDLRPGCGSRQWYPSNMRSSRDYPAGGH
notes: pIII and flanks not included
- D2H/BSA [5]: 5 ratio
- OD [6]: 0.591 OD 650 nm

B30: phage DAX27 (peptide)
peptide: SHPWYRHWNHGDFSGSGQSRHTPPESPHPGRPNATI
notes: pIII and flanks not included
- D2H/BSA [5]: 4 ratio
- OD [6]: 1.58 OD 650 nm

B31: phage DCX8 (peptide)
peptide: RYKHDIGCDAGVDKKSSSVRGGCGAHSSPPRAGRGPRGTMVSRL
notes: pIII and flanks not included
- OD [7]: 0.163 OD 650 nm
- D2H/BSA [8]: 3 ratio

B32: phage DCX11 (peptide)
peptide: SQGSKQCMQYRTGRLTVGSEYGCGMNPARHATPAYPARLLPRYR
notes: pIII and flanks not included
- OD [7]: 0.222 OD 650 nm
- D2H/BSA [8]: 3 ratio

B33: phage S22 (peptide)
peptide: SSSSDWGGVPGKVVRERFKGRGCGISITSVLTGKPNPCPEPKAA
notes: pIII and flanks not included
- hSI/BSA [1]: 7 ratio
- OD [2]: 0.399 OD 650 nm

B34: phage DCX26 (peptide)
peptide: SGRTTSEISGLWGWGDDRSGYGWGNTLRPNYIPYRQATNRHRYT
notes: pIII and flanks not included
- OD [7]: 0.956 OD 650 nm
- D2H/BSA [8]: 4 ratio

B35: phage PAX9 (peptide)
peptide: RWPSVGYKGNGSDTIDVHSNDASTKRSLIYNHRRPLFP
notes: pIII and flanks not included
- OD [3]: 0.312 OD 650 nm
- PEPT1/BSA [4]: 4 ratio

B36: phage PAX14 (peptide)
peptide: RTFENDGLGVGRSIQKKSDRWYASHNIRSHFASMSPAGK
notes: pIII and flanks not included
- OD [3]: 1.1 OD 650 nm
- PEPT1/BSA [4]: 8 ratio

B37: phage PAX15 (peptide)
peptide: SYCRVKGGGEGGHTDSNLARSGCGKVARTSRLQHINPRATPPSR
notes: pIII and flanks not included
- OD [3]: 0.301 OD 650 nm
- PEPT1/BSA [4]: 4 ratio

B38: phage PAX16 (peptide)
peptide: SWTRWGKHTHGGFVNKSPPGKNATSPYTDAQLPSDQGPP
notes: pIII and flanks not included
- OD [3]: 0.648 OD 650 nm
- PEPT1/BSA [4]: 4 ratio
